In paper PMC4336573 (2015):

Target: T1, Histone H3 K27me3 peptide H3K27me3 peptide (Homo sapiens, UniProt P68431, K27 trimethylation (H3))
T1 chain: QLATKAARKSAPATGGV
Experiment: fluorescence anisotropy

Kd: 27.7 µM
B1: CBX7 chromodomain (protein)
chain: FAVESIRKKRVRKGKVEYLVKWKGWPPKYSTWEPEEHILDPRLVMAYEEKEERDRASGY
